B1: TrpE-PLC-SH2[N+C] (other)
chain: MQTQKPTLELLTCEGAYRDNPTALFHQLCGDRPATLLLESADIDSKDDLKSLLLVDSALRITALGDTVTIQALSGNGEALLALLDNALPAGVESEQSPNCRVLRFPPVSPLLDEDARLCSLSVFDAFRLLQNLLNVPKEEREAMFFGGLFSYDLVAGFEDLPQLSAENNCPDFCFYLAETLMVIDHQKKSTRIQASLFAPNEEEKQRLTARLNELRQQLTEAAPPLPVVSVPHMRCECNQSDEEFGGVVRLLQKAIRAGEIFQVVPSRRFSLPCPSPLAAYYVLKKSNPSPYMFFMQDNDFTLFGASPESSLKYDATSRQIEIWFHGKLGAGRDGRHIAERLLTEYCIETGAPDGSFLVRESETFVGDYTLSFWRNGKVQHCRIHSRQDAGTPKFFLTDNLVFDSLYDLITHYQQVPLRCNEFEMRLSEPVPQTNAHESKEWYHASLTRAQAEHMLMRVPRDGAFLVRKRNEPNSYAISFRAEGKIKHCRVQQEGQTVMLGNSEFDSLVDLISYYEKHPLYRKMKLRYPI
B2: TrpE-PLC-SH2[N] (other)
chain: MQTQKPTLELLTCEGAYRDNPTALFHQLCGDRPATLLLESADIDSKDDLKSLLLVDSALRITALGDTVTIQALSGNGEALLALLDNALPAGVESEQSPNCRVLRFPPVSPLLDEDARLCSLSVFDAFRLLQNLLNVPKEEREAMFFGGLFSYDLVAGFEDLPQLSAENNCPDFCFYLAETLMVIDHQKKSTRIQASLFAPNEEEKQRLTARLNELRQQLTEAAPPLPVVSVPHMRCECNQSDEEFGGVVRLLQKAIRAGEIFQVVPSRRFSLPCPSPLAAYYVLKKSNPSPYMFFMQDNDFTLFGASPESSLKYDATSRQIEIWFHGKLGAGRDGRHIAERLLTEYCIETGAPDGSFLVRESETFVGDYTLSFWRNGKVQHCRIHSRQDAGTPKFFLTDNLVFDSLYDLITHYQQVPLRCNEFEMRLSEPV
B3: TrpE-GAP-SH2[N+3+C] (other)
chain: MQTQKPTLELLTCEGAYRDNPTALFHQLCGDRPATLLLESADIDSKDDLKSLLLVDSALRITALGDTVTIQALSGNGEALLALLDNALPAGVESEQSPNCRVLRFPPVSPLLDEDARLCSLSVFDAFRLLQNLLNVPKEEREAMFFGGLFSYDLVAGFEDLPQLSAENNCPDFCFYLAETLMVIDHQKKSTRIQASLFAPNEEEKQRLTARLNELRQQLTEAAPPLPVVSVPHMRCECNQSDEEFGGVVRLLQKAIRAGEIFQVVPSRRFSLPCPSPLAAYYVLKKSNPSPYMFFMQDNDFTLFGASPESSLKYDATSRQIEITNQWYHGKLDRTIAEERLRQAGKSGSYLIRESDRRPGSFVLSFLSQMNVVNHFRIIAMCGDYYIGGRRFSSLSDLIGYYSHVSCLLKGEKLLYPVAPPEPVEDRRRVRAILPYTKVPDTDEISFLKGDMFIVHNELEDGWMWVTNLRTDEQGLIVEDLVEEVGREEDPHEGKIWFHGKISKQEAYNLLMTVGQVCSFLVRPSDNTPGDYSLYFRTNENIQRFKICPTPNNQFMMGGRYYNSIGDIIDHYRKEQIVEGYYLKEPVPMQD

Legend:
[1] = target: T1, PDGF receptor from BB-PDGF-stimulated Rat-2 cells (activated PDGF-R) (rat (endogenous protein of Rat-2 cells), UniProt Q05030, phosphotyrosine (after stimulation with 75 nM BB-PDGF; sites not stated)); experiment: pull-down from lysate of PDGF-stimulated Rat-2 PLCγ1 cells; competitor: overexpressed cellular PLCγ1
Source text: Only a minor fraction of activated PDGF-R complexes with PLCγ1 in vivo. A Rat-2 cell line was genetically modified to overexpress PLCγ1 by tenfold as compared with the endogenous enzyme (Rat-2 PLCγ1). There is a proportionate increase in the amount of PDGF-R precipitated with antibodies to PLCγ1 (anti-PLCγ1) after PDGF stimulation of Rat-2 PLCγ1 cells, in comparison with parental Rat-2 cells. If bacterial PLCγ1 SH2 domains bound to the same site(s) on the PDGF-R as did cellular PLCγ1, then overexpression of PLCγ1 should block binding of bacterial PLCγ1 SH2 domains to activated PDGF-R in vitro. To investigate this Rat-2 cells (FIG. 10, lanes 1, 2, 5 and 6) or a Rat-2 cell line that overexpressed PLCγ1 by tenfold (R2-PLCγ; lanes 3, 4, 7, 8) were stimulated with PDGF (lanes 1, 3, and 5–8) or maintained without PDGF (lanes 2 and 4). Cell lysates were mixed with immobilized TrpE-PLC-SH2[N] (lanes 1 to 4), TrpE-PLC-SH2[N+C] (lanes 5 and 7), or TrpE-GAP-SH2 [N+3+C] ([…]). Samples were washed, separated by gel electrophoresis, and immunoblotted with anti-P.Tyr. Similar results were obtained by blotting with anti-PDGF-R.

[2] = target: T1, PDGF receptor from BB-PDGF-stimulated …; experiment: pull-down of immobilised TrpE fusion from lysate of PDGF-stimulated Rat-2 cells, immunoblot
Method: The following procedure was used to investigate binding of TryE fusion proteins that contain GAP, Src, or Crk SH2 domains to PDGF-R in lysates of stimulated Rat-2 cells. Serum-starved Rat-2 cells were stimulated for 5 min at 37° C. with 75 nM BB-PDGF, lysed, and mixed with the indicated immobilized TrpE bacterial fusion proteins. Complexes were washed, resolved on 7.5% SDS-polyacrylamide gels and analyzed by immunoblotting with anti-P.Tyr (8 hour exposure) or with anti-PDGF-R (18 hour exposure).
Because GAP also associates with the PDGF-R, experiments were carried out using bacterial GAP SH2 sequences (see FIG. 7). The GAP SH2[N] domain bound the PDGF-R in a lysate of PDGF-stimulated cells (FIG. 9), but not in unstimulated cells.

| Binder | PDGF-R associated, relative to parental PDGF-stimulated Rat-2 cells [1] | fold more efficient binding than expected from the individual SH2 domains [2] |
| --- | --- | --- |
| B1 | 0.33 fraction of the amount from parental Rat-2 cells |  |
| B2 | 0.33 fraction of the amount from parental Rat-2 cells |  |
| B3 |  | 3 fold |

Source: US5814466, “Method for assaying for a substance that affects an SH2-phosphoraylated ligand regulatory system” (Mount Sinai Hospital Corporation, dated 1998)
